Patent US20240110213A1 (Chr. Hansen HMO GmbH, priority 2020, published 2024)
Like-named read-outs stand apart in the source and are kept apart here.

What was measured:
[1] = target: E. coli wild-type LacY (Escherichia coli, UniProt P02920); conditions: cited from earlier work
[2] = test system: bacterial LNT production strains; assay: Lactose sensitivity of bacterial LNT production strains (OD600 in shaking flasks); assay type: cell-based, E. coli BL21(DE3); conditions: 20 hours after addition, compared to growth in the absence of lactose
Method: The culture medium used to grow the cells for the production of the desired oligosaccharide contained: 3 g/L KH2PO4, 12 g/L K2HPO4, 5 g/L (NH4)SO4, 0.3 g/L citric acid, 0.1 g/L NaCl, 2 g/L MgSO4×7 H2O and 0.015 g/L CaCl2×6 H2O, supplemented with 1 ml/L trace element solution (54.4 g/L ammonium ferric citrate, 9.8 g/L MnCl2×4 H2O, 1.6 g/L […], 1 g/L CuCl2×2 H2O, 1.9 g/L MnCl2×4 H2O, 1.1 g/L Na2MoO4×2 H2O, 1.5 g/L Na2SeO3, 1.5 g/L NiSO4×6 H2O). The pH of the medium was adjusted to 7.0. Lactose was added to the medium in a concentration of 10 mM to 25 mM for synthesis of the desired oligosaccharide by the cells and for testing the cells' sensitivity to lactose.
The bacterial cells were grown at 30° C. and 80% relative humidity with constant agitation at 120 rpm. After 20 h culturing, the optical density of the pre-cultures was determined and the main cultures were inoculated to an OD600 of 0.3 in 25 ml of mineral salts medium. Lactose was added to the culture medium two hours after inoculation of the cultures to final concentrations of 10 or 25 mM. The optical densities (OD600) of the main cultures were determined 20 hours after addition of lactose.

[3] = test system: LNT-producing E. coli strain; assay: Lacto-N-tetraose production in lab scale fermentation (3 litre); assay type: cell-based
Method: The identity of lacto-N-tetraose being produced was determined by multiple reaction monitoring (MRM) using an LC triple-quadrupole MS detection system (Shimadzu LCMS-8050). Precursor ions were selected and analyzed in quadrupole 1, followed by collision-induced fragmentation (CID) with argon and selection of fragment ions in quadrupole 3.
The oligosaccharide LNT in particle-free culture supernatants or cytoplasmic fractions were separated by high performance liquid chromatography (HPLC) using a Waters XBridge Amide HPLC column (3.5 μm, 2.1 […] 50 mm) for both neutral or acidic sugars. Neutral sugars were eluted with isocratic flow of H2O with 0.1% (v/v) ammonium hydroxide. The HPLC system encompasses a Shimadzu Nexera X2 SIL-30ACMP autosampler run at 8° C., a Shimadzu LC-20AD pump, and a Shimadzu CTO-20AC column oven running at 35° C. for elution of neutral sugars and was adjusted to 50° C. for elution of acidic sugars. For the analysis of LNT 1 μl was injected into the instrument. Flow rate was set 0.3 mL/min corresponding to a run time of 5 min. LNT was analyzed in negative ion mode. The mass spectrometer was operated at unit resolution. Collision energy, Q1 and Q3 pre-bias were optimized for each analyte. Quantification methods were established using commercially available standards (Carbosynth and Elicityl).
The impact of reduced lactose import and reduced lactose sensitivity by a bacterial strain on its oligosaccharide production was analyzed in a small-scale fermentation.
In a first set of fermentations each of the bacterial strains was inoculated from a preculture in a fermentation broth containing 20 mM lactose.
In these cultures, the lactose feed (2.5 ml/L/h) was started at the end of the batch phase.

[4] = test system: lactose permease genes; assay: Expression analysis of lactose permease genes by qPCR; assay type: cell-based, E. coli BL21(DE3); conditions: normalized to gapA, compared with parental strain, FIG. 3
Method: A metabolically engineering derivative of E. coli BL21(DE3) which was capable of producing lacto-N-tetraose (LNT) was obtained by genetic engineering.
For expression analyses individual clones obtained from above-referenced mutagenesis approach were inoculated in 25 ml mineral salts medium in shaking flasks. Expression analysis of each clone was performed in 3 replicates. The bacterial cells were grown at 30° C. and a relative humidity of 80% with constant agitation at 120 rpm. After 20 h of culturing, the optical densities of these precultures were determined and the main cultures were seeded to an OD600 of 0.05 in 25 ml of mineral salts medium. The main cultures were cultured for 20 h under the same conditions as the pre-cultures were cultured. Then the bacterial cells were harvested by centrifugation and used for extraction of RNA and subsequent expression analysis by qPCR. The relative quantification of expression levels was performed using the comparative Δ cycle threshold method, the calculated relative expression values were normalized to gapA and compared with the expression level in the parental strain used as control.

[5] = test system: E. coli strains expressing different variants of the E. coli lactose permease LacY; assay type: cell-based
Method: Bacterial cell pellets from these cultures were used to inoculate 100 ml minimal medium in shaking flasks. These cultures were incubated for 16 hours at 37° C. in a shaker. The bacterial cells were then sedimented by centrifugation and the resulting pellets were washed twice with fresh cold (4° C.) culture medium and finally resuspended in cold medium. The optical density (OD600) of the cell suspension was set to 5 with cold medium, and the cell suspension is were stored on ice until use for the internalization assay.
Three minutes prior to the transport assay, the bacterial cells were placed in a 37° C. thermo block. […] […] The bacterial cells on the filter were washed twice with 100 mM LiCl and the filter was used subsequently to quantify remaining radioactivity in a Tricarb 2800 scintillation counter (Perkin Elmar, Waltham, MA). To this end, the filters were transferred into scintillation tubes and overlaid with 6 ml Rotiszint eco plus (Roth, Karlsruhe, DE).
In a second set of experiments, the transport assays were started by addition of a mixture of ^14C-labelled lactose and non-radiolabeled lactose to a final concentration of 5 mM lactose and 550,000 dpm. The bacterial cells were collected by filtration after 60 seconds incubation, and washed twice with 3 ml medium containing 5 mM unlabelled lactose.

E. coli wild-type LacY, sequence (P02920 whole entry): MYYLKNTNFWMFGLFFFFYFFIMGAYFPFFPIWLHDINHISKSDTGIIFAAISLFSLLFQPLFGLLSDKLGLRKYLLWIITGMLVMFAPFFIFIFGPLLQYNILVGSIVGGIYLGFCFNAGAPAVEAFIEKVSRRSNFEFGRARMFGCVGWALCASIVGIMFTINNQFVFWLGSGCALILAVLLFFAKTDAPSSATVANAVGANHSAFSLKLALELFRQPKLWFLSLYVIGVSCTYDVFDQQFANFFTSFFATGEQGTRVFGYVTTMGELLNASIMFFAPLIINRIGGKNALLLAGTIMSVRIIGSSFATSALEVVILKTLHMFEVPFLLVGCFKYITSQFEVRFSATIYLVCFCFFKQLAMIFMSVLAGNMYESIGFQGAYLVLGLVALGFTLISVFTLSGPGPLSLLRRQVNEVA

## O=C[C@H](O)[C@@H](O)[C@H](O[C@@H]1O[C@H](CO)[C@H](O)[C@H](O)[C@H]1O)[C@H](O)CO [lactose, β-D-galactopyranosyl-(1→4)-D-glucose]
[1]
  Km: 620 µM

## OC[C@H]1O[C@@H](O[C@@H]2[C@@H](CO)OC(O)(CO)[C@H]2O)[C@H](O)[C@@H](O)[C@H]1O (mixture of isomers) [lactulose]
[1]
  Km: 240 µM

## OC[C@H]1O[C@H](OCC2O[C@@H](O)[C@H](O)[C@@H](O)[C@@H]2O)[C@H](O)[C@@H](O)[C@H]1O (stereo partly shown) [melibiose]
[1]
  Km: 240 µM

## CS[C@@H]1O[C@H](CO)[C@H](O)[C@H](O)[C@H]1O [TMG, methyl-1-thio-β,D-galactopyranoside, reference compound]
[1]
  Km: 540 µM

B1: LacY(L293R): E. coli LacY variant with leucine at position 293 substituted with arginine (protein, UniProt P02920 1-417, looked up, variant L293R)
Lactose permease: MYYLKNTNFWMFGLFFFFYFFIMGAYFPFFPIWLHDINHISKSDTGIIFAAISLFSLLFQPLFGLLSDKLGLRKYLLWIITGMLVMFAPFFIFIFGPLLQYNILVGSIVGGIYLGFCFNAGAPAVEAFIEKVSRRSNFEFGRARMFGCVGWALCASIVGIMFTINNQFVFWLGSGCALILAVLLFFAKTDAPSSATVANAVGANHSAFSLKLALELFRQPKLWFLSLYVIGVSCTYDVFDQQFANFFTSFFATGEQGTRVFGYVTTMGELLNASIMFFAPLIINRIGGKNALRLAGTIMSVRIIGSSFATSALEVVILKTLHMFEVPFLLVGCFKYITSQFEVRFSATIYLVCFCFFKQLAMIFMSVLAGNMYESIGFQGAYLVLGLVALGFTLISVFTLSGPGPLSLLRRQVNEVA
[2]; 10 mM lactose
  growth (OD600): not reduced
[2]; 25 mM lactose
  growth (OD600): not reduced
[3]; LNT fermentation, FIG. 7
  growth kinetics throughout the fermentation: regular growth kinetics
[3]; LNT fermentation, FIG. 7, compared to strain bearing LacY
  optical density reached in the culture: higher
[3]; continuous lactose feed 3.2 ml/L/h, lactose level kept high
  setback in the OC600 and lactose-caused cell lysis: without causing any setback in the OC600 and without apparent lactose-caused cell lysis
[3]; fermentation broth containing 20 mM lactose at inoculation
  growth: did not display any problems in growth
[4]
  relative expression: at the same level
[5]; exogenous lactose 0.5 mM, 30 seconds, FIG. 5A
  lactose internalization (radioactivity incorporated): reduced but detectable
[5]; exogenous lactose 5 mM, 60 seconds, FIG. 5B
  lactose internalization (radioactivity incorporated): reduced but detectable
